Source: patent US20230416347A1
Changes are numbered by the printed parent chain. Blank lines part the entries; values can stand above or below the binder they belong to.

Tests used:
[1] = biological target: rVλ6Wil fibrils; experiment: EuLISA on rVλ6Wil fibrils (FIG. 5A)
[2] = biological target: rVλ6Wil fibrils; experiment: EuLISA on rVλ6Wil fibrils (FIG. 5B)

EC50 [1]: 17 nM
B1: VH10/VL4 (antibody, V domains shown)
VH: QVQLQESGPGLVKPSETLSLTCTVSGFSLSSYGVSWIRQPPGKGLEWLGVIWGDGSTNYHPNLMSRLSISKDTSKSQVLLKLSSVTAADTAVYYCVTLDYWGQGTSVTVSS
VL: DVVMTQSPLSLPVTLGQPASISCRSSQSLVHRNGNTYLHWFQQRPGQSPRLLIYKVSNRFSGVPDRFSGSGSGTDFTLKISRVEAEDVGVYFCFQTTYVPNTFGGGTKLEIK

EC50 [2]: 95 nM | EC50 [1]: 95 nM
B2: VH6/VL3 (antibody, V domains shown)
VH: B1 VH with I37V, S76N, V78F, L79S, V92T
VL: B1 VL with F41Y, Q42L, V90L

EC50 [1]: 16 nM
B3: VH8/VL4 (antibody, V domains shown)
VH: B1 VH with L48I, L67V, S68T, V78F, L79S
VL: B1 VL

EC50 [1]: 75 nM
B4: VH7/VL4 (antibody, V domains shown)
VH: B1 VH with L48I, L67V, S68T, S76N
VL: B1 VL
